Data reported in the supplement of paper PMC11136658.

Tested on: peptide library, one residue held at a place counted from the Y acceptor
Experiment: relative phosphorylation of the sub-library (ratio to the mean residue at this position); higher = residue favoured
In short: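 Biotinylated Tyr-centred peptide library mixtures, each fixing one residue at one position from −5 to +5, were incubated with purified recombinant kinases in 384-well plates for 90 min with 50 μM ATP plus γ-32P-ATP. Streptavidin membranes captured the peptides, which were rinsed and quantified by phosphorimaging and ImageQuant. At each position, intensities were divided by the sum of the 18 randomized residues (16 for the Ser/Thr-free library) and multiplied by that number. Each value is phosphorylation relative to the mean randomized residue.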

Sequence of BMPR2, construct: aa172-end, human (Q13873 172-1038, looked up): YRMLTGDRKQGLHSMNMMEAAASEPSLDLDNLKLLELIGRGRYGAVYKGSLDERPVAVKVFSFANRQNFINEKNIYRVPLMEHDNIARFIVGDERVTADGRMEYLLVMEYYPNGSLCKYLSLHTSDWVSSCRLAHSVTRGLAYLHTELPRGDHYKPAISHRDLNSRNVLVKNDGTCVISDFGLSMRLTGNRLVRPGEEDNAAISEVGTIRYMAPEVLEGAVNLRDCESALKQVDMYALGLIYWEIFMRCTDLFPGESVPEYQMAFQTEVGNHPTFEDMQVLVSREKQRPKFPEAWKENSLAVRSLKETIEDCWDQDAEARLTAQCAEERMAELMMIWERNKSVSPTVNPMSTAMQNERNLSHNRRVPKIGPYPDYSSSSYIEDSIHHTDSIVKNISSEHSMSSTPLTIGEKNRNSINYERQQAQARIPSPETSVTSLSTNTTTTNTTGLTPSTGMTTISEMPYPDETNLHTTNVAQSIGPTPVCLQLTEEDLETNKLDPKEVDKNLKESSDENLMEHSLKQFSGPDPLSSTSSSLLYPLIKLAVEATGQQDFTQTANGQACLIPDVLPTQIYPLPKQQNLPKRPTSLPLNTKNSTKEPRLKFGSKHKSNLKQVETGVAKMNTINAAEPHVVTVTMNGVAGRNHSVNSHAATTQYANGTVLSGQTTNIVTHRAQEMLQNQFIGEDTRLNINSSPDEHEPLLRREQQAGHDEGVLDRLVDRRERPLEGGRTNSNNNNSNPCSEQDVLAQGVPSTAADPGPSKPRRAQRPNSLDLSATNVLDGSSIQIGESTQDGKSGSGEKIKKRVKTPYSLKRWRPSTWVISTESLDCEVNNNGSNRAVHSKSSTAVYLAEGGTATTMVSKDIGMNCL

BMPR2, construct: aa172-end, human (from UniProt Q13873)
relative phosphorylation
Conditions | at +1 | at +2 | at +3 | at +4 | at +5 | at -1 | at -2 | at -3 | at -4 | at -5
A fixed | 0.886 | 0.936 | 0.914 | 0.977 | 0.907 | 0.88 | 0.948 | 0.948 | 0.967 | 0.964
D fixed | 0.835 | 1.34 | 1.18 | 1.05 | 1.04 | 2.25 | 1.25 | 1.33 | 1.31 | 1.29
E fixed | 0.785 | 1.44 | 1.13 | 1.07 | 1.04 | 1.44 | 1.08 | 1.27 | 1.16 | 1.1
F fixed | 0.959 | 0.852 | 0.953 | 0.96 | 0.947 | 0.755 | 1.09 | 0.989 | 1.13 | 1.06
G fixed | 0.927 | 0.923 | 1.03 | 1.04 | 1.07 | 1.46 | 1.03 | 1.02 | 0.965 | 0.987
H fixed | 1.03 | 0.986 | 0.995 | 1.08 | 1.06 | 0.796 | 1.09 | 1.1 | 1.14 | 1.05
I fixed | 1.02 | 0.969 | 1.02 | 1 | 0.961 | 0.767 | 0.754 | 0.855 | 0.861 | 0.928
K fixed | 1.11 | 0.898 | 0.966 | 1.04 | 1.06 | 0.708 | 1.06 | 0.872 | 0.875 | 0.942
L fixed | 1.09 | 0.864 | 0.827 | 0.834 | 0.842 | 0.832 | 1.05 | 0.852 | 0.896 | 0.863
M fixed | 1.06 | 0.913 | 0.906 | 0.917 | 0.874 | 0.841 | 0.97 | 0.881 | 0.901 | 0.892
N fixed | 0.897 | 1.08 | 1 | 1 | 0.99 | 1.08 | 1 | 1.1 | 0.933 | 1.05
P fixed | 1.23 | 0.981 | 1.05 | 1.07 | 1.15 | 0.724 | 0.825 | 0.86 | 0.905 | 0.928
Q fixed | 0.917 | 0.994 | 0.979 | 0.957 | 0.972 | 0.92 | 1.01 | 1.01 | 0.987 | 1.03
R fixed | 1.2 | 0.99 | 1.14 | 1.1 | 1.23 | 0.92 | 1.05 | 1.04 | 0.92 | 0.975
V fixed | 1.26 | 1.03 | 1.04 | 0.972 | 0.979 | 0.781 | 0.732 | 0.918 | 0.911 | 0.906
W fixed | 0.808 | 0.789 | 0.875 | 0.919 | 0.88 | 0.843 | 1.06 | 0.963 | 1.14 | 1.03
pThr fixed | 2.07 | 1.7 | 1.39 | 1.4 | 1.12 | 3.29 | 1.35 | 1.22 | 1.22 | 1.27
pTyr fixed | 1.48 | 2.01 | 1.17 | 1.27 | 1.05 | 2.54 | 1.64 | 2.3 | 2 | 1.47
